From patent publication US20190153092A1 (NBE THERAPEUTICS, published 2019)

What was measured:
[1] = target: T1, StrepII-tagged ROR1-extracellular domain (human) (human, UniProt Q01973 30-406); experiment: SPR (Biacore T200), purified mAb captured by anti-human Fc, ROR1-strep 2.5-20 nM as analyte, 1:1 model, 25 C
T1 construct: extracellular domain; also called ROR1-strep; soluble ROR1-strep
Method: ROR1-strep was diluted in running buffer using 2-fold serial dilutions ranging from 20 nM to 2.5 nM. Association was measured at a flow of 30 μl/min for 120 s, and dissociation was followed for 200 s. Curves were fitted using 30 s dissociation due to upper plateau formation at later timepoints. Capture levels ranged from 29.1 RU to 57.7 RU.

[2] = target: T1, StrepII-tagged ROR1-extracellular …; experiment: SPR (Biacore T200), IgG from HEK293T supernatant captured by anti-human Fc, ROR1-strep 2.5-20 nM as analyte, 1:1 model, 25 C
Method: For initial determination of huR12 clone affinities and parental R12 using transient HEK293T supernatants, IgG expression vectors were transiently transfected into 293T cells and IgG titers in supernatants were quantified by ELISA. For SPR, supernatants were diluted to 1 μg/ml IgG with running buffer (HBS-EP+ pH 7.4 (10 mM HEPES, 150 mM NaCl, 3 mM EDTA, 0.05% Tween 20)) and captured for 200 s with a flow of 30 μl/min. ROR1-strep was diluted in running buffer using 2-fold serial dilutions ranging from 20 nM to 2.5 nM. Association was measured at a flow of 30 μl/min for 120 s, and dissociation was followed for 1000 s. Capture levels ranged from 26.9 RU to 54.1 RU.

[3] = target: T1, StrepII-tagged ROR1-extracellular …; experiment: SPR (Biacore T200), purified mAb captured by goat anti-human Fc-gamma IgG, ROR1-strep 1.25 to 20 nM, 120 s association, 1000 s dissociation, 1:1 model
Method: FIG. 13: Comparison of affinities of humanized and parental R12 mAbs determined by SPR using purified antibody. The three humanized R12 mAbs indicated were expressed at large scale in HEK293T cells, purified by Protein A affinity chromatography and subjected to SPR analysis for determination of affinity towards soluble ROR1-strep. Antibodies were captured using a goat α-human Fc-gamma-specific IgG. ROR1-strep was diluted in running buffer using 2-fold serial dilutions ranging from 1.25 nM to 20 nM. Association was measured 120 s, and dissociation was followed for 1000 s. Capture levels ranged from 26.9 RU to 54.1 RU.

T1 sequence (Q01973 other isoform, or with tags, fused parts or gaps): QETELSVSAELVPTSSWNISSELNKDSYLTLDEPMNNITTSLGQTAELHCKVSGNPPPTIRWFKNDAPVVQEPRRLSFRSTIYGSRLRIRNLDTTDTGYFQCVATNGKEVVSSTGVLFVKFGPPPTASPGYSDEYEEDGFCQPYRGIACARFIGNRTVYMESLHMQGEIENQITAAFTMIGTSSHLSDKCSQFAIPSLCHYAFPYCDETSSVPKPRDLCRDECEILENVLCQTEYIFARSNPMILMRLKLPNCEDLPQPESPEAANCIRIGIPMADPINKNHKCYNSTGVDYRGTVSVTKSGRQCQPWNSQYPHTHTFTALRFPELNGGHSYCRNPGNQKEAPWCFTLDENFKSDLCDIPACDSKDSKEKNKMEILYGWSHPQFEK

B1: chimeric mAb 2A2 (mouse variable regions, human IgG1/kappa constant regions) (antibody, V domains shown)
VH: QVQLQQSGAELVRPGASVTLSCKASGYTFSDYEMHWVIQTPVHGLEWIGAIDPETGGTAYNQKFKGKAILTADKSSSTAYMELRSLTSEDSAVYYCTGYYDYDSFTYWGQGTLVTVSA
VL: DIVMTQSQKIMSTTVGDRVSITCKASQNVDAAVAWYQQKPGQSPKLLIYSASNRYTGVPDRFTGSGSGTDFTLTISNMQSEDLADYFCQQYDIYPYTFGGGTKLEIK
notes: also called chim 2A2; parental mAb 2A2
Kd [1]: 5.7 nM | koff [1]: 0.00968 s⁻¹ | kon [1]: 1.69e+06 M⁻¹ s⁻¹

B2: hu2A2-D23, humanized from 2A2 (antibody, human IgG1, V domains shown)
VH: QVQLVESGAEVKKPGASVKLSCKASGYTFSDYEMHWVRQAPGQRLEWMGAIDPETGGTAYNQKFKGRVTITVDKSASTAYMELSSLRSEDTAVYYCTGYYDYDSFTYWGPGTTVTVSS
VL: DIVMTQSPSTLSASVGDRVTITCKASQNVDAAVAWYQQKPGTAPKLLIYSASNRYTGVPSRFSGSGSGTEFTLTISSLQSEDLADYFCQQYDIYPYTFGQGTKLEIK
notes: Human IgG1/kappa, expressed in 293T cells and purified; also called msD23-19
Kd [1]: 8 nM | koff [1]: 0.0138 s⁻¹ | kon [1]: 1.72e+06 M⁻¹ s⁻¹

B3: hu2A2b-Q11, humanized from 2A2 (antibody, human IgG1, V domains shown)
VH: EVQLVQSGAEVKKPGASVKVSCKASGYTFSDYEMHWVRQAPGQGLEWLGAIDPETGGTAYNQKFKGRVTMTGDTSISTAYMELSRLTSDDTAVYYCTGYYDYDSFTYWGQGTLVSVSS
VL: DIQMTQSPSSLSTSVGDRVTITCKASQNVDAAVAWYQQKPGKAPKLLIYSASNRYTGVASRFSGSGSGTDFTFTISSLQSEDLADYFCQQYDIYPYTFGQGTKLEIK
notes: also called hu2A2-Q11; msQ11-3
Kd [1]: 9.9 nM | koff [1]: 0.0173 s⁻¹ | kon [1]: 1.75e+06 M⁻¹ s⁻¹

B4: hu2A2-D16, humanized from 2A2 (antibody, human IgG1, V domains shown)
VH: EVQLVESGAEVKKPGASVKVSCKASGYTFSDYEMHWVRQAPGQGLEWVGAIDPETGGTAYNQKFKGRVTMTRDTSTSTVYMELSSLRSEDTAVYYCTGYYDYDSFTYWGQGTLVTVSS
VL: DIQMTQSPSSLSASVGDRVTITCKASQNVDAAVAWYQQKPGKAPKLLIYSASNRYTGIPTRFSGSGSGTDFTLTISSLQSEDLADYFCQQYDIYPYTFGQGTKVEIK
notes: Human IgG1/kappa, expressed in 293T cells and purified; also called msD16-7
Kd [1]: 10.9 nM | koff [1]: 0.0189 s⁻¹ | kon [1]: 1.73e+06 M⁻¹ s⁻¹

B5: rbQ11, humanized from R11 (antibody, human IgG1, V domains shown)
VH: EVQLVQSGGGLVQPGGSLRLSCAASGSDINDYPISWVRQAPGKGLEWVSFINSGGSTWYASWVKGRFTISRDNAKNSLYLQMNSLRDDDTATYFCARGYSTYYGDFNIWGQGTLVTVSS
VL: DIVMTQSPSSLSASVGDRVTITCQASQSIDSNLAWFQQKPGKAPKSLIYRASNLASGVPSKFSGSGSGTDFTLTISSLQREDAATYYCLGGVGNVSYRTSFGGGTKVEIK
notes: Human IgG1/kappa, expressed in 293T cells and purified; also called huR11-Q11; rbQ11-32
Kd [1]: 6.1 nM | koff [1]: 0.00498 s⁻¹ | kon [1]: 821000 M⁻¹ s⁻¹

B6: rbD4, humanized from R11 (antibody, human IgG1, V domains shown)
VH: EVQLVESGGGLVQPGRSLRLSCTASGSDINDYPISWFRQAPGKGLEWVGFINSGGSTWYASWVKGRFTISRDDSKSIAYLQMNSLKTDDTATYFCARGYSTYYGDFNIWGQGTTVTVSS
VL: DVVMTQSPSSLSASVGDRVTITCQASQSIDSNLAWFQQKPGKAPNLLIYRASNLASGVPSRFSGSGSGTEFTLTISSLQREDAATYYCLGGVGNVSYRTSFGQGTKVEIK
notes: Human IgG1/kappa, expressed in 293T cells and purified; also called huR11-D4; rbD4-32
Kd [1]: 9 nM | koff [1]: 0.0071 s⁻¹ | kon [1]: 785000 M⁻¹ s⁻¹

B7: rbQ12, humanized from R11 (antibody, human IgG1, V domains shown)
VH: EVQLVESGGGLVQPGGSLRLSCAASGSDINDYPISWVRQAPGKGLEWVSFINSGGSTWYASWVKGRFTISRDNAKNSLYLQMNSLRADDTATYFCARGYSTYYGDFNIWGQGTMVTVSS
VL: EIVMTQSPSSLSASVGDRVTITCQASQSIDSNLAWFQQKPGKAPNLLIYRASNLASGVPSRFSGSGSGTEFTLTISSLQREDAATYYCLGGVGNVSYRTSFGQGTKVEIK
notes: Human IgG1/kappa, expressed in 293T cells and purified; also called huR11-Q12; rbQ12-40
Kd [1]: 14.2 nM | koff [1]: 0.0104 s⁻¹ | kon [1]: 733000 M⁻¹ s⁻¹

B8: huR12_4, humanized from R12 (antibody, human IgG1, V domains shown)
VH: QVQLVESGGELVQPGGSLTLSCKASGFDFSAYYMSWVRQAPGKGLEWIATIYPSSGKTYYAASVQGRFTISADNAKNTVYLQMNSLTAADTATYFCARDSYADDGALFNIWGKGTLVTVSS
VL: QLVLTQSPSVSAALGSSAKITCTLSSAHKTDTIDWYQQLAGQAPRYLMYVQSDGSYEKRSGVPDRFSGSASGADRYLAISRVQADDEADYYCGADYIGGYVFGGGTQLTVLG
notes: Human IgG1 with lambda light chain
Kd [2]: 0.091 nM | koff [2]: 9.93e-05 s⁻¹ | kon [2]: 1.09e+06 M⁻¹ s⁻¹ | Kd [3]: 0.0571 nM

B9: huR12_7, humanized from R12 (antibody, human IgG1, V domains shown)
VH: QVQLVESGGELVQPGGSLTLSCKASGFDFSAYYMSWVRQAPGKGLEWIATIYPSSGKTYYAASVQGRFTISADNAKNTVSLQMNSLTAADTATYFCARDSYADDGALFNIWGKGTLVTVSS
VL: QLVLTQSPSVSAALGSSAKITCTLSSAHKTDTIDWYQQLAGQAPRYLMYVQSDGSYEKRSGVPDRFSGSSSGADRYLIISSVQADDEADYYCGADYIGGYVFGGGTQLTVLG
notes: as for B8
Kd [2]: 0.11 nM | koff [2]: 0.000116 s⁻¹ | kon [2]: 1.05e+06 M⁻¹ s⁻¹ | Kd [3]: 0.051 nM

B10: Chimeric mAb R12 (rabbit variable regions, human IgG1/lambda constant regions) (antibody, V domains shown)
VH: QEQLVESGGRLVTPGGSLTLSCKASGFDFSAYYMSWVRQAPGKGLEWIATIYPSSGKTYYATWVNGRFTISSDNAQNTVDLQMNSLTAADRATYFCARDSYADDGALFNIWGPGTLVTISS
VL: ELVLTQSPSVSAALGSPAKITCTLSSAHKTDTIDWYQQLQGEAPRYLMQVQSDGSYTKRPGVPDRFSGSSSGADRYLIIPSVQADDEADYYCGADYIGGYVFGGGTQLTVT
notes: Full-length IgG1 with human gamma 1 and lambda constant regions; also called parental mAb R12
Kd [2]: 1.03 nM | koff [2]: 0.000361 s⁻¹ | kon [2]: 349000 M⁻¹ s⁻¹ | Kd [3]: 0.427 nM

B11: huR12_11, humanized from R12 (antibody, human IgG1, V domains shown)
VH: QVQLVESGGALVQPGGSLTLSCKASGFDFSAYYMSWVRQAPGKGLEWIATIYPSSGKTYYAASVQGRFTISADNAKNTVYLQMNSLTAADTATYFCARDSYADDGALFNIWGQGTLVTVSS
VL: QLVLTQSPSVSAALGSSAKITCTLSSAHKTDTIDWYQQLAGQAPRYLMYVQSDGSYEKRSGVPDRFSGSSSGADRYLIISSVQADDEADYYCGADYIGGYVFGGGTQLTVG
notes: as for B8
Kd [2]: 0.084 nM | koff [2]: 9.65e-05 s⁻¹ | kon [2]: 1.15e+06 M⁻¹ s⁻¹ | Kd [3]: 0.0616 nM

B12: huR12_16, humanized from R12 (antibody, human IgG1, V domains shown)
VH: QVQLVESGGELVTPGGSLTLSCKASGFDFSAYYMSWVRQAPGKGLEWIASIYPSSGKTYYAAAVQGRFTISADNAKNTVYLQMNSLTAADTATYFCARDSYADDGALFNIWGQGTLVTVSS
VL: QLVLTQSPSVSAALGSSAKITCTLSSAHKTDTIDWYQQLAGQAPRYLMYVQSDGSYEKRSGVPDRFSGSSSGADRYLIISSVQADDEADYYCGADYIGGYVFGGGTQLTVG
notes: as for B8
Kd [2]: 0.092 nM | koff [2]: 8.79e-05 s⁻¹ | kon [2]: 960000 M⁻¹ s⁻¹
